Assay results: patent US20240343815A1 (CHIA TAI TIANQING PHARMACEUTICAL GROUP, published 2024)
Where a chain is given by its changes, count along the chain named. Read-outs that look alike come from different tables or passages of the source.

B1: Mouse C2C1A1A1 (antibody, V domains shown)
VH: EVQLVESGGGLVQPGGSLKLSCAASGFTFSTYGMSWVRQTPDKRLELVATINSNGGSTSYPDSVKGRFTISRDNAKNTLYLQMSSLKSEDTAMFYCARFFRFRNAMDYWGQGTSVTVSS
VL: DIQMTQSPASLSASVGETVTITCRTSENIYSYLAWYQQKQGKSPQFLVYNAKTLAEGVPSRFSGSGSGTQFSLNINSLQSEDFGSYYCQHYYGPPTWTFGGGTKLEIK
B2: huC2C1A1A1-V6 (antibody, human IgG4 S228P, kappa, V domains shown)
VH: B1 VH with K19R, T40S, L47W, A49S, S84R, K87R, S88A, M93V, F94Y, S114L
VL: DIQMTQSPSSLSASVGQRVTITCRTSENIYSYLAWYQQKQGKPPRFLIYNAKTLAEGVPSRFSGSGSGTEFTLTITSLQAEDFGVYYCQHYYGPPTWTFGPGTKLEIKR
notes: Humanized IgG4/kappa
B3: Chimeric C2C1A1A1 (antibody, human IgG4 S228P, kappa, V domains shown)
VH: B1 VH
VL: DIQMTQSPASLSASVGETVTITCRTSENIYSYLAWYQQKQGKSPQFLVYNAKTLAEGVPSRFSGSGSGTQFSLNINSLQSEDFGSYYCQHYYGPPTWTFGGGTKLEIKR
notes: Mouse variable regions on human IgG4 / kappa constant regions; also called chimeric antibody; Supernatant containing chimeric C2C1A1A1
B4: huC2C1A1A1-V4 (antibody, human IgG4 S228P, kappa, V domains shown)
VH: EVQLVESGGGLVQPGGSLRLSCAASGFTFSTYGMSWVRQAPGKGLVWVSTINSNGGSTSYPDSVKGRFTISRDNAKNTLYLQMNSLRAEDTAVYYCARFFRFRNAMDYWGQGTLVTVSS
VL: DIQMTQSPSSLSASVGDRVTITCRTSENIYSYLAWYQQKPGKAPKFLIYNAKTLAEGVPSRFSGSGSGTDFTLTISSLQPEDFATYYCQHYYGPPTWTFGQGTKVEIKR
notes: Humanized IgG4/kappa
B5: huC2C1A1A1-V10 (antibody, human IgG4 S228P, kappa, V domains shown)
VH: B4 VH with W47L, S49A
VL: B2 VL
notes: Humanized IgG4/kappa
B6: huC2C1A1A1-V16 (antibody, human IgG4 S228P, kappa, V domains shown)
VH: B4 VH with S49A
VL: B4 VL
notes: Humanized IgG4/kappa
B7: huC2C1A1A1-V9 (antibody, human IgG4 S228P, kappa, V domains shown)
VH: B4 VH with W47L, S49A
VL: B4 VL with F46L
notes: Humanized IgG4/kappa
B8: huC2C1A1A1-V3 (antibody, human IgG4 S228P, kappa, V domains shown)
VH: B4 VH
VL: B4 VL with I48V
notes: Humanized IgG4/kappa
B9: huC2C1A1A1-V8 (antibody, human IgG4 S228P, kappa, V domains shown)
VH: B4 VH with A40S, G42D, G44R, V46E, N84R
VL: B4 VL
notes: Humanized IgG4/kappa
B10: huC2C1A1A1-V12 (antibody, human IgG4 S228P, kappa, V domains shown)
VH: B4 VH with W47L, S49A
VL: B4 VL
notes: Humanized IgG4/kappa
B11: huC2C1A1A1-V2 (antibody, human IgG4 S228P, kappa, V domains shown)
VH: B4 VH
VL: B2 VL
notes: Humanized IgG4/kappa
B12: huC2C1A1A1-V15 (antibody, human IgG4 S228P, kappa, V domains shown)
VH: B4 VH with S49A
VL: B4 VL with I48V
notes: Humanized IgG4/kappa
B13: huC2C1A1A1-V5 (antibody, human IgG4 S228P, kappa, V domains shown)
VH: B4 VH with A40S, G42D, G44R, V46E, N84R
VL: B4 VL with F46L
notes: Humanized IgG4/kappa
B14: huC2C1A1A1-V11 (antibody, human IgG4 S228P, kappa, V domains shown)
VH: B4 VH with W47L, S49A
VL: B4 VL with I48V
notes: Humanized IgG4/kappa
B15: huC2C1A1A1-V14 (antibody, human IgG4 S228P, kappa, V domains shown)
VH: B4 VH with S49A
VL: B2 VL
notes: Humanized IgG4/kappa
B16: huC2C1A1A1-V1 (antibody, human IgG4 S228P, kappa, V domains shown)
VH: B4 VH
VL: B4 VL with F46L
notes: Humanized IgG4/kappa
B17: huC2C1A1A1-V7 (antibody, human IgG4 S228P, kappa, V domains shown)
VH: B4 VH with A40S, G42D, G44R, V46E, N84R
VL: B4 VL with I48V
notes: Humanized IgG4/kappa
B18: huC2C1A1A1-V13 (antibody, human IgG4 S228P, kappa, V domains shown)
VH: B4 VH with S49A
VL: B4 VL with F46L
notes: Humanized IgG4/kappa

Assays:
[1] = target: T1, human IL4Rα on HEK293T-IL4Rα-STAT6-STAT6LUC-LB2 cells (human, UniProt P24394 26-825); assay: cell-based or functional assay
[2] = target: T2, recombinant human IL4Rα-his protein (human, UniProt P24394 26-232, biotinylated in the capture ELISA and the benchmark blocking ELISA); assay: SPR Biacore, mAb captured, IL4Rα-his analyte
T2 construct: also called biotinylated human IL4Rα-his protein
Description: Briefly, a goat anti-human IgG (GE Healthcare, Cat. No. BR100839, Human Antibody Capture Kit) was covalently attached to a CMS chip (carboxymethylated dextran-coated chip) via the primary amine group using a standard amine coupling kit supplied by Biacore (GE Healthcare, Pittsburgh, PA, USA). Unreacted portions on the biosensor surface were blocked with ethanolamine. Then, the anti-IL4Rα antibody in the present disclosure at 66.67 nM and an anti-IL4Rα antibody benchmark (dupilumab, or DUPIXENT® or BM) at 10 μg/mL were directed through the chip at a flow rate of 10 μL/min. A recombinant human IL4Rα-his protein (prepared in-house, amino acid sequence set forth in SEQ ID NO: 15), a cynomolgus monkey IL4Rα-his protein (Sino Biological Inc., Cat. No. 90897-008H), or a marmoset monkey IL4Rα-his protein (customized product from Sino Biological Inc., denoted as cal-IL4Rα-his, amino acid sequence set forth in SEQ ID NO: 16) serially diluted with an HBS EP buffer (supplied by Biacore) was directed through the chip at a flow rate of 30 μIJmin. The antigen-antibody binding kinetics was tracked for 2 min and the dissociation kinetics was tracked for 10 min. The association and dissociation curves were fitted according to a 1:1 Langmuir binding model using BIA evaluation software, and the KD, Kₐ, and Kd values were determined.
According to the protocol in the examples above, the binding affinity of the humanized antibodies to human IL4Rα was assessed by the BIAcore technique, and the Kₐ, Kd, and KD values were determined and summarized in Table 3.

[3] = target: T2, recombinant human IL4Rα-his protein; assay: SPR Biacore, mAb captured from supernatant, IL4Rα-his analyte
[4] = target: T1, human IL4Rα on …; assay: cell-based or functional assay; remark: listed apart in the source

Binder	Dissociation (%) [2] [%]	also measured
B1		Inhibition of IL4-induced STAT6 phosphorylation (IC50, nM) [1]: 0.19 nM; Inhibition of IL13-induced STAT6 phosphorylation (IC50, nM) [1]: 0.27 nM
B2	-0.59	
B3	-1.94	Kd [3]: 0.111 nM; koff [3]: 4.04e-05 s⁻¹; Inhibition of IL4-induced STAT6 phosphorylation (IC50, nM) [1]: 0.27 nM; Inhibition of IL13-induced STAT6 phosphorylation (IC50, nM) [1]: 0.56 nM; End (RU) [2]: 65.8 RU; Kd [2]: < 0.0304 nM; Start (RU) [2]: 67.1 RU; koff [2]: < 1e-05 s⁻¹; Inhibition of IL4-induced STAT6 phosphorylation (IC50, nM) [4]: 0.26 nM; Inhibition of IL13-induced STAT6 phosphorylation (IC50, nM) [4]: 0.39 nM
B4	0.2	
B5	-1.54	
B6	-0.42	
B7	-0.24	
B8	-0.62	
B9	-1.23	
B10	-1.88	
B11	-0.2	
B12	0.29	Inhibition of IL4-induced STAT6 phosphorylation (IC50, nM) [4]: 0.61 nM; Inhibition of IL13-induced STAT6 phosphorylation (IC50, nM) [4]: 0.6 nM
B13	-2.28	
B14	-0.92	
B15	0.8	Inhibition of IL4-induced STAT6 phosphorylation (IC50, nM) [4]: 0.64 nM; Inhibition of IL13-induced STAT6 phosphorylation (IC50, nM) [4]: 0.73 nM
B16	0.23	
B17	-0.66	
B18	0.82	
